This data set can be described thus: self-splicing fitness, log relative to wild type (ln ratio); higher = more splicing; Tetrahymena group I intron in knt gene, E. coli kanamycin selection, DiMSum; sequences stand for … in CUCUCU…GGAGGGAAAAGUUAUCAGGCAUGCACCUGGUAGCUAGUCUUUAAACCAAUAGAUUGCAUCGGUUUAAAAGGCAAGACCGUCAAAUUGCGGGAAAGGGGUCAACAGCCGUUCAGUACCAAGUCUCAGGGGAAACUUUGAGAUGGCCUUGCAAAGGGUAUGGUAAUAAGCUGACGGACAUGGUCCUAACCACGCAGCCAAGUCCUAAGUCAACAGAUCUUCUGUUGAUAUGGAUGCAGUUCACAGACUAAAUGUCGGUCGGGGAAGAUGUAUUCUUCUCAUAAGAUAUAGUCGGACCUCUCCUUAAUGGGAGCUAGCGGAUGAAGUGAUGCAACACUGGAGCCGCUGGGAACUAAUUUGUAUGCGAAAGUAUAUUGAUUAGUUUUGGAGUACUCGUGGUCG
The essentials:
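The eight P1ex-region nucleotides of an intron in the knt kanamycin-resistance gene on pET-22b(+) were all randomised and the library put into E. coli BL21(DE3). Six replicate transformations were grown overnight at 37°C or 30°C on LB agar with or without 25 μg/mL kanamycin, together with 100 μg/mL carbenicillin, 50 μM IPTG and 0.2% rhamnose. Colonies were pooled and amplicon-sequenced on an Illumina HiSeq 2500. Fitness from DiMSum is the error-weighted combination of wild-type-normalised replicate fold changes, kanamycin over none.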

± gives the uncertainty stated by the source.

For the sequence AACAAGCAAUAUUACGACUC, the “self-splicing fitness (ln)” value reads like this: (30 °C) -0.216 ± 0.072; (37 °C) 0.125 ± 0.097.
Consider UCUGAGCAAUAUUACGCCAU, for which the “self-splicing fitness (ln)” value (37 °C) is -2.32 ± 0.31.
Consider GUUCAGCAAUAUUACGCUCC, for which the “self-splicing fitness (ln)” value was -0.282 ± 0.15 (30 °C) and -0.544 ± 0.23 (37 °C).
For AGCAAGCAAUAUUACGUGAC, the “self-splicing fitness (ln)” value reads like this: (30 °C) -2.49 ± 0.2; (37 °C) -1.85 ± 0.27.
As for AGAAAGCAAUAUUACGCGCA, the “self-splicing fitness (ln)” value reads like this: (30 °C) -0.218 ± 0.094; (37 °C) 0.174 ± 0.11.
Regarding UACAAGCAAUAUUACGCACC, the “self-splicing fitness (ln)” value (30 °C) was -1.62 ± 0.14 and the “self-splicing fitness (ln)” value (37 °C) is -1.42 ± 0.23.
With UCCUAGCAAUAUUACGACGG, the “self-splicing fitness (ln)” value was -2.14 ± 0.13 (30 °C) and -0.657 ± 0.14 (37 °C).
GUUAAGCAAUAUUACGUUUU: the “self-splicing fitness (ln)” value was -3.11 ± 0.15 (30 °C) and -1.7 ± 0.16 (37 °C).
As to UCGCAGCAAUAUUACGCACC, the “self-splicing fitness (ln)” value (30 °C) is -1.68 ± 0.27 and the “self-splicing fitness (ln)” value (37 °C) is -1.6 ± 0.38.
On the same counts, the results for GCCAAGCAAUAUUACGUGAC are -1.89 ± 0.13 and -0.468 ± 0.12.
On the same counts, the results for AGUGAGCAAUAUUACGAUGC are -2.29 ± 0.28 and -3.16 ± 0.43.
The like results for UGGUAGCAAUAUUACGCUGU were, in that order, -3.24 ± 0.19 and -2.12 ± 0.17.
Turning to UCGCAGCAAUAUUACGAUGC, the “self-splicing fitness (ln)” value (30 °C) was -3.73 ± 0.28 and the “self-splicing fitness (ln)” value (37 °C) was -1.64 ± 0.2.
The like results for CUUUAGCAAUAUUACGGGUC were, in that order, -3.26 ± 0.17 and -1.32 ± 0.21.
The like results for GAAGAGCAAUAUUACGAUUU were, in that order, -1.31 ± 0.079 and -1.04 ± 0.14.
On the same counts, the results for ACGCAGCAAUAUUACGUUAC are -3.14 ± 0.15 and -3.27 ± 0.23.
Consider AACUAGCAAUAUUACGUGUA, for which the “self-splicing fitness (ln)” value by setting is: (30 °C) -2.2 ± 0.09; (37 °C) -0.888 ± 0.09.
The like results for UACGAGCAAUAUUACGAAUC were, in that order, -4.18 ± 0.34 and -2.03 ± 0.39.
The like results for CGCCAGCAAUAUUACGAAGU were, in that order, -3.65 ± 0.16 and -2.13 ± 0.11.
ACCGAGCAAUAUUACGGUAA: the “self-splicing fitness (ln)” value by setting is: (30 °C) -2.6 ± 0.18; (37 °C) -1.7 ± 0.12.
As for GAAAAGCAAUAUUACGACCG, the “self-splicing fitness (ln)” value is -0.942 ± 0.14 (30 °C) and -0.33 ± 0.17 (37 °C).
CAUUAGCAAUAUUACGGAUU: the “self-splicing fitness (ln)” value (30 °C) is -3.12 ± 0.2 and the “self-splicing fitness (ln)” value (37 °C) is -1.23 ± 0.21.
For the sequence AAUGAGCAAUAUUACGUUGG, the “self-splicing fitness (ln)” value is, setting by setting: (30 °C) -3.18 ± 0.23; (37 °C) -3.55 ± 0.27.
The like results for CAACAGCAAUAUUACGUCUC were, in that order, -2.24 ± 0.074 and -0.669 ± 0.081.
Turning to CUGGAGCAAUAUUACGAUGA, the “self-splicing fitness (ln)” value is, setting by setting: (30 °C) -3.18 ± 0.4; (37 °C) -1.87 ± 0.24.
On the same counts, the results for GGAUAGCAAUAUUACGAAAC are -1.67 ± 0.31 and -0.834 ± 0.23.
For GUUCAGCAAUAUUACGUUCG, the “self-splicing fitness (ln)” value runs as follows: (30 °C) -0.684 ± 0.067; (37 °C) 0.137 ± 0.1.
As to GUAAAGCAAUAUUACGUUAU, the “self-splicing fitness (ln)” value is, setting by setting: (30 °C) -2.57 ± 0.14; (37 °C) -1.23 ± 0.17.
Turning to CCCCAGCAAUAUUACGGCCA, the “self-splicing fitness (ln)” value reads like this: (30 °C) -3.1 ± 0.2; (37 °C) -2.16 ± 0.2.
In the case of UAUGAGCAAUAUUACGGCUG, the “self-splicing fitness (ln)” value was -1.01 ± 0.15 (30 °C) and -0.14 ± 0.19 (37 °C).
The like results for UCCGAGCAAUAUUACGUUAG were, in that order, -3.14 ± 0.15 and -2.56 ± 0.24.
Consider GCUGAGCAAUAUUACGCCAG, for which the “self-splicing fitness (ln)” value runs as follows: (30 °C) -3.69 ± 0.25; (37 °C) -2.73 ± 0.41.
As for GUGCAGCAAUAUUACGGCCA, the “self-splicing fitness (ln)” value (30 °C) is -0.211 ± 0.11 and the “self-splicing fitness (ln)” value (37 °C) was -0.818 ± 0.14.
On the same counts, the results for CCAGAGCAAUAUUACGGAUU are -3.05 ± 0.15 and -2.38 ± 0.16.
Regarding AACAAGCAAUAUUACGAUCA, the “self-splicing fitness (ln)” value runs as follows: (30 °C) -0.766 ± 0.058; (37 °C) -0.628 ± 0.078.
On the same counts, the results for UCCAAGCAAUAUUACGUAGC are -3.38 ± 0.14 and -1.38 ± 0.11.
On to UACGAGCAAUAUUACGCAAU, for which the “self-splicing fitness (ln)” value reads like this: (30 °C) -3.04 ± 0.17; (37 °C) -2.65 ± 0.18.
Turning to UGAUAGCAAUAUUACGGGCA, the “self-splicing fitness (ln)” value was -0.911 ± 0.075 (30 °C) and 0.244 ± 0.12 (37 °C).
In the case of CGCGAGCAAUAUUACGAUGU, the “self-splicing fitness (ln)” value is -3.79 ± 0.23 (30 °C) and -2.74 ± 0.22 (37 °C).
For AUUUAGCAAUAUUACGGGUU, for the setting “37 °C”, the “self-splicing fitness (ln)” value was -0.906 ± 0.21.
Turning to CUAUAGCAAUAUUACGUGCG, the “self-splicing fitness (ln)” value reads like this: (30 °C) -1.19 ± 0.1; (37 °C) -0.322 ± 0.13.
As to AUGUAGCAAUAUUACGUGUA, the “self-splicing fitness (ln)” value by setting is: (30 °C) -2.47 ± 0.11; (37 °C) -1.74 ± 0.089.
On to UUCAAGCAAUAUUACGGCAG, for which the “self-splicing fitness (ln)” value (30 °C) was -1.05 ± 0.077 and the “self-splicing fitness (ln)” value (37 °C) is -0.45 ± 0.11.
On to GCAAAGCAAUAUUACGCUAC, for which the “self-splicing fitness (ln)” value was -2.2 ± 0.16 (30 °C) and -2.09 ± 0.26 (37 °C).
The like results for AACGAGCAAUAUUACGAGUG were, in that order, -1.64 ± 0.097 and -0.602 ± 0.12.
On the same counts, the results for CGGAAGCAAUAUUACGUCAG are -1.33 ± 0.13 and -0.154 ± 0.17.
As to CUCUAGCAAUAUUACGUCAC, under “30 °C”, the “self-splicing fitness (ln)” value was -2.66 ± 0.19.
Turning to AAAUAGCAAUAUUACGUUCU, the “self-splicing fitness (ln)” value by setting is: (30 °C) -0.419 ± 0.069; (37 °C) -0.584 ± 0.091.
On the same counts, the results for GAAAAGCAAUAUUACGAGAU are -3.26 ± 0.26 and -2.08 ± 0.28.
Consider UCCAAGCAAUAUUACGUUUC, for which the “self-splicing fitness (ln)” value (30 °C) was -3.37 ± 0.2 and the “self-splicing fitness (ln)” value (37 °C) is -2.76 ± 0.26.
For the sequence UCUAAGCAAUAUUACGUGUC, for the setting “30 °C”, the “self-splicing fitness (ln)” value is -4.21 ± 0.36.
Regarding CACAAGCAAUAUUACGUCGG, the “self-splicing fitness (ln)” value is -0.785 ± 0.05 (30 °C) and -0.422 ± 0.063 (37 °C).
In the case of GAGGAGCAAUAUUACGUCAC, the “self-splicing fitness (ln)” value (30 °C) was -2.85 ± 0.25.
As for CCGCAGCAAUAUUACGUCCG, the “self-splicing fitness (ln)” value is -0.393 ± 0.084 (30 °C) and -0.499 ± 0.09 (37 °C).
Regarding UGCCAGCAAUAUUACGGUGC, the “self-splicing fitness (ln)” value is -4.01 ± 0.18 (30 °C) and -2.14 ± 0.21 (37 °C).
As for AUGUAGCAAUAUUACGCCUG, the “self-splicing fitness (ln)” value is -1.33 ± 0.23 (30 °C) and -0.722 ± 0.21 (37 °C).
For GGGGAGCAAUAUUACGGCAU, the “self-splicing fitness (ln)” value (30 °C) is -1.9 ± 0.13 and the “self-splicing fitness (ln)” value (37 °C) is -1.53 ± 0.15.
Turning to GGACAGCAAUAUUACGGAAU, the “self-splicing fitness (ln)” value is -1.19 ± 0.089 (30 °C) and -0.191 ± 0.12 (37 °C).
The like results for AUAGAGCAAUAUUACGACCC were, in that order, -2.56 ± 0.47 and -1.4 ± 0.42.
The like results for CGUCAGCAAUAUUACGGUGC were, in that order, -2.31 ± 0.11 and -3.54 ± 0.31.
Take UCUGAGCAAUAUUACGAAGC: the “self-splicing fitness (ln)” value (37 °C) was -1.48 ± 0.37.
GCCCAGCAAUAUUACGCCCA: the “self-splicing fitness (ln)” value (30 °C) was -0.496 ± 0.15 and the “self-splicing fitness (ln)” value (37 °C) is -1.1 ± 0.17.
The like results for GCCUAGCAAUAUUACGACUG were, in that order, -3.25 ± 0.27 and -2.97 ± 0.4.
The like results for UAUCAGCAAUAUUACGUGUC were, in that order, -4.01 ± 0.17 and -1.79 ± 0.12.
On the same counts, the results for UAGUAGCAAUAUUACGGUCG are -0.566 ± 0.097 and -0.103 ± 0.12.
For the sequence ACCAAGCAAUAUUACGGAUG, the “self-splicing fitness (ln)” value is, setting by setting: (30 °C) -2.47 ± 0.069; (37 °C) -2.48 ± 0.088.
On the same counts, the results for CACGAGCAAUAUUACGUUUU are -3.49 ± 0.15 and -2.94 ± 0.18.
GGGCAGCAAUAUUACGGGAG: the “self-splicing fitness (ln)” value reads like this: (30 °C) -3.27 ± 0.22; (37 °C) -2.21 ± 0.2.
The like results for GGCCAGCAAUAUUACGGUAA were, in that order, -0.188 ± 0.053 and 0.0838 ± 0.061.
The like results for CAUAAGCAAUAUUACGGCGU were, in that order, -2.7 ± 0.15 and -0.836 ± 0.12.
The like results for CCAGAGCAAUAUUACGAUGA were, in that order, -1.88 ± 0.14 and -0.518 ± 0.11.
UCGAAGCAAUAUUACGACAU: the “self-splicing fitness (ln)” value (30 °C) is -3.755 ± 0.027 and the “self-splicing fitness (ln)” value (37 °C) was -2.29 ± 0.038.
For GCGGAGCAAUAUUACGGGAU, the “self-splicing fitness (ln)” value (30 °C) was 0.0919 ± 0.27.
Take ACAAAGCAAUAUUACGGGAG: the “self-splicing fitness (ln)” value is -1.72 ± 0.1 (30 °C) and -1.08 ± 0.12 (37 °C).
The like results for CCGGAGCAAUAUUACGCGGG were, in that order, -4.25 ± 0.39 and -2.25 ± 0.19.
The like results for UGAGAGCAAUAUUACGCACC were, in that order, -1.54 ± 0.26 and -1.15 ± 0.45.
For the sequence GGAUAGCAAUAUUACGUCAC, the “self-splicing fitness (ln)” value was -2.88 ± 0.27 (30 °C) and -2.05 ± 0.26 (37 °C).

Values taken from the supplement of paper PMC7877785.
